Experimental data taken from the nanobody polyreactivity screen of Harvey et al. (2022).

Assay: yeast display, Sf9 membrane polyspecificity reagent, FACS + sequencing; frameworks hold sequencing errors
Summary of the method: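 Nanobodies came from a synthetic yeast display library in Saccharomyces cerevisiae BJ5465, induced with galactose for 36–48 hours and stained for 1 hour at 4 °C with 10% biotinylated, detergent-solubilized Sf9 membrane reagent. Cells were enriched on streptavidin microbeads and then FACS-sorted, with low and high (top ~1%) gates set on anti-HA fluorescence for expression and streptavidin fluorescence for reagent binding. Each polyreactivity label reflects the gate a clone came from. Genes were amplified by colony PCR, sequenced by MiSeq 2 × 250 and filtered by CDR length.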

Sequence	polyreactivity (PSR sort gate)
QVQLVESGGGLVQAGGSLRLSCAASGFTFTAYAMGLYRQAPGKERQLVAAINWSGSRTYYADSVKGRFTISRDNAKNTVYLQMNSLKPEDSAVYYCNTPTSKSSYRHYDYWGQGTQVTVSS	high polyreactivity
QVQLVESGGVLVQAGGSLRVSCAASGGIFPRYTMGWSRQAPGKERELVASITRSGASTYYADSVKGRFTISRDKAKNTVYLPINSQKPEDTWFYYVISDVYVYSVTSHYTSSRLDYWGQGTQVTVSS	high polyreactivity
QVQLVESGGGLVQAGGSLRLSCAASGYIFVYNSMGWYRPAPGKERELVAVINYSGSSTYYADSVKGRFPISRDNAKNTVYLQMNSLKPEDTAVYYCNALRRESLEDEYWGQGTQVTVSS	high polyreactivity
QVQLVESGGGLVQAGGSLRLSCDASASILRENAMGWYRQAPGKERELVAVITRGGNTYYADSVKGRFTISRDNAKNTVYLQMNSLKPEDTAVYYCAAKRRERYGQTYGYWGQGTQVTVSS	high polyreactivity
QVQLVESGGGLVQAGGSLRLSCAASGRTFVQNAMGWYRQAPGKERELVASIRYRDGSTYYADSVKGRFTISRDNAKNTVYLQMNSLKREDTAVYYCAVRIGARGRGGKDRVYYWGQGTQVTVSS	high polyreactivity
QVQLVESGGGLVQAGGSLRLSCAASGSIFSDYTMGWYRQAPGKERELVAAISGIGGSTYYADSVKGRFTISRDNAKNTVYLQMNSLKPEDTAVYYCAADDYYYPYVSHDYWGQGTQVTVSS	low polyreactivity
QVQLVESGGGLFQAGGSLRLSCAASGFIFTGYAMGWYRQAPGKASELVAVISYSAGSTYYADSVKGRFTISRDNAKNTVYLQMNSLKPEDTAVYYCAADHGKNLTYDYWGQGTQVTVSS	high polyreactivity
QVQLVESGGGLVQAGGSLRLSCAASGRIFRYNAMGWYRQAPGKERELVASITSGGSTKYADSVKGRFTISRDNAKNTVYLQMNSLKPEDTAVYYCAAQRATPWPKNDYWGQGTQVTVSS	high polyreactivity
QVQLVESGGGLVQAGGSLRLSCAASGRIFYYNTMGWYRQAPGKERELVAAITTNGGSTYYADSVKGRFTISRDNAKNTVYLQMNSLKPLDTAVYYCKRDRYPYYYAYNYWGQGTQVTVSS	low polyreactivity
QVQLVESGGGLVQAGGSLRLSCAASGFTIRSYVMGWYRQAPGKEREFVAAISYRGGGTNYADSVKGRFTISRDNAKNTVYLQMNSLKPEDSAVYYCNAYIVSNEGDYWGQGTQVTVSS	high polyreactivity
QVQLVESGGGLVQAGGSIRLSCAASGLTFRWYAMGWYRQAPGKESELVAAISSGGRTYYADSVKGRFTISRDNAKNTVYLLMNSLKPEDTAVYYSNKRTLDYGFGSYGREYWGQGTQVTVSS	high polyreactivity
QVQLVESGGGLVQAGGSLRLSCAASGRIFNSNTMGWYRQAPGKERELVAAITYSGGSTYYADSVKGRFSISRDNAKNTVYLQMNSLKPEDTAVYYCAASYYYGRRYDYWGQGTQVTVSS	low polyreactivity
QVQLVESGGGLVQAGGSLRLSCAASGRIFRWSVRGWYRQAPGKERELVAAISYGSGSTYYADSVKGRFTISRDNAKNTVYLQMNSLKPEDTAVYYCAADSQAARYHAYDYWGQGTQVTVSS	high polyreactivity
QVQLVESGGGLVQAGGSLRLSCAASGIIFRSNAMGWYRQAPGKERELVAAISWSGSSTYYADSVKGRFTISRDNAKKTVYLQMNSLKPEDTAVYYCAAYDFYGIYWGQGTQVTVSS	low polyreactivity
QDQHVESGGGLVQAGGSLRLSCAASGHTFRLYTMGWYRQAPGKEREFVAAIRRRTGSTYYADSVKGRFTISRDNAQNTVYLQRNSMKAEVTAVYYCNAVGDARYNYRGQGTQVTVSS	high polyreactivity
QVQLVESGGGLVQAGGSLRLSCAASGRTFDVYAMGWYRQAPGKERELVAAITSGGSTYYADSVKGRFTISRDNAKNTVYLQMNSLKPEDTAVYYCATDVDKSLYDYWGQGTQVTVSS	low polyreactivity

Sequence	polyreactivity (PSR sort gate)
QVQLVEAGGGLVQAGGSLRLSCAASGSTFPYNARGWYSQAPGKDRELVAAMTSAGGTNYADSVKGRFTISRDNATNTVYLQMNSLKPEDTAVYYCAADGSGYYDWYYYWGQGTQVTVSS	low polyreactivity
QVHLVESGGGLVQAGGSLRLSCAASVRTFYRNAMGWYRQAPGKERELVAAITRSGSTNYADSVKGRFTISRDNAKNTVYLQMNSLKPEDTAVYYCAAKFFRNTYSYGMDYWGQGTQVTVSS	high polyreactivity
QVQLVESGGGLVQAGGSLRLSCAASGGTFRPYAMGWYRQAPGKERELVATIRSSGGRTYYADSVKGRFTISRDNAKNTVYLQMISLKPEDTAVYSCAADRTRGYGNDYWGQGTQVTVSS	high polyreactivity
QVQLVESGGGLVHAVGSLRLSCAASGFIFHEYAMGCYIQAPGKERELVAAISSGGGSTYYADSVKGRFTISRDNAKNTVYLQMNSLKPEDTAVYYCAADATAYSVLTRDYWGQGTQVTVSS	high polyreactivity
QDQLVESGGGLVQAGGSLRISCAASGRIFRRNTMGRYRQAPGKERELVADINSSDGDTYYADSVKGRFTISRDNAKNTVYLQMNSLKPEDTAVYYCAADLSPLGEMDYWGQGTQVTVSS	low polyreactivity
QVQLVESGGGLVQAGGSLRLSCAASGYTIYIYAMGWYRQAPGKEREFVATISRSGGSTSYADSVKGRFTISRDNAKNTVYLQMNSLKPEDTSVYYCAAEWGYYAVGAQYYYWGQGTQVTVSS	high polyreactivity
QVQLVESGGGLVQAGGTLRLSCAASGSTFAANAMGCSRQAPGKERELVAGISESGDRTYADSVKGRFTISRDNAKNTVYLQMNSQKPEETAVYYCNVGANVYLLYFPSRGGVYDYGYWGHGTQVTVSS	low polyreactivity
QVQLVESGGGLVQAGGSLRLSCAASGRTFIRYTMGWYRPAPGKERELVAAITSTGRTYYADSVKGRFTISRDNAKNTVYLQMNSLKPEDTAVYYCAAKQSWEGYDYWGQGTQVTVSS	low polyreactivity
QVQLVESGGGLVQAGGSLRLSCAASGRTFPVYAMGWYRQAPGKEREFVAAISRRGGSTYYADSVKGRFTISRDNAKNTVYLQMNSLKPQDTAVYYCAKVYYLYGAQHNPGRYDYWGQGTQLTVSS	high polyreactivity
QVQLVESGGGLVQAGGSLSLSCAATGSIFLHNAMGWYRQAPGKERELVAVITSRGGSTYYADSVKGRFTISRDNAKNTVYLQMNSLKPEDTAVYYCAAPAYHKRTSRGDYWGQGTQVTVSS	low polyreactivity
QVQLVESGGGLVQAGGSLRLSCAASGRILYIYAMGWYRQAPGKERELVAAIRSSGGSTYYADSVKGRFTISRDNAKNTVYFQMNSLKPEDTAVYYCAAPDFPKYYPTAYLQADEYWGQGTQVTVSS	high polyreactivity
QVQLQESGGGQVQAGGTITLGYDMGWYRQAPGKEREFVAGIDTGAITYYADSVKGRFTNSRDNAKNTVYLQMNSLKPEDTAVYYCAAIQTHTYAHSYWGQGTQVTVSS	high polyreactivity
QVQLVESGGGLVQAGGSLRLSCAASGRIFSRNAMGWYRQAPGKERELVAAISRSGGSTYYADSVKGRFTISRDNAKNTVYLQMNSLKPEDTAVYYCNTRYRPVKGSGPRYDYWGQGTQVTVSS	low polyreactivity
QDQLVESGGGLVQAGGSLRLSCAASGLIFFFYPMGWYRQAPGKERELVASISGGGITYYADSVKGRFTISRDNAKNTVYLQMNSLKQEDTPVIKNDYWGQGTQVTLSS	low polyreactivity
QVQLVESGGGLVQAGGSLRLSCAASGIIFDTNAMGWYRQAPGKERELVATITQRGGTTYYADSVKGRFTISRDNAKNTVYLQMNSLKPEDTAVYYCNAGPVRLPYDSWGQGTQVTVSS	low polyreactivity
QVQLVESGGGLVQAGGSLRLSCAASGRIFGTYAMGWYRQAPGKEREFVAAITSSGGNTYYADSVKGRFTISRDNAKNTVYLQMNSLKPEDTGVYYCNARPLYRHYITRFDYWGQGTQVTVSS	high polyreactivity
